Experimental data as given in patent US20200277377A1 (WUXI BIOLOGICS SHANGHAI, published 2020).

Legend:
Test in all cases: capture ELISA, alanine scan, vs silent alanine substitutions
[1] = molecular target: T1, hCTLA4_ECD.His point mutant M38 to alanine (human, UniProt P16410 36-161)
T1 construct: extracellular domain; alanine-scan mutein, HEK293F supernatant
T1 sequence (looked up): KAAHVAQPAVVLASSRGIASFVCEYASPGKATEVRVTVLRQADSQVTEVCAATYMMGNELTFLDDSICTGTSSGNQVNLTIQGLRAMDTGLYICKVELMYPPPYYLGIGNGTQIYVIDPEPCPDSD
Description: (§1) In order to test how the mutations affect antibody-binding, a capture ELISA was conducted. […] After interacting with the supernatant that contains quantified CTLA4 muteins, HRP conjugated anti-His antibody (1:5000; Rockland Immunochemicals, Pottstown, Pa.) was added as detection antibody. TMB was used as substance of HRP. Absorbance was normalized according to the average of control mutants. After setting an additional cutoff to the binding fold change (<0.55), the final determined epitope residues were identified.

[2] = molecular target: T2, hCTLA4_ECD.His point mutant Y60 to alanine (human, UniProt P16410 36-161)
T2 construct: extracellular domain; alanine-scan mutein, HEK293F supernatant
T2 sequence (looked up): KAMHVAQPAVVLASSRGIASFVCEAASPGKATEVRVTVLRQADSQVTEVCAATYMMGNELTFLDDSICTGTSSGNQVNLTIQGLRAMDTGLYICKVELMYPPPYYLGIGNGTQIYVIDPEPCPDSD
Description: as §1

[3] = molecular target: T3, hCTLA4_ECD.His point mutant T88 to alanine (human, UniProt P16410 36-161)
T3 construct: extracellular domain; alanine-scan mutein, HEK293F supernatant
T3 sequence (looked up): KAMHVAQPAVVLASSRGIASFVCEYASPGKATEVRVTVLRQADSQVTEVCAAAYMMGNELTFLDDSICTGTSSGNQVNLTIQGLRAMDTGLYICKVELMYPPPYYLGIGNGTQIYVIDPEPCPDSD
Description: as §1

[4] = molecular target: T4, hCTLA4_ECD.His point mutant H39 to alanine (human, UniProt P16410 36-161)
T4 construct: extracellular domain; alanine-scan mutein, HEK293F supernatant
T4 sequence (looked up): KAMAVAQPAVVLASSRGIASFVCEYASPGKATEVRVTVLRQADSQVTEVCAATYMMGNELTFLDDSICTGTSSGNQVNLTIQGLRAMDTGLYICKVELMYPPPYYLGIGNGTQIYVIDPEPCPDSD
Description: as §1

[5] = molecular target: T5, hCTLA4_ECD.His point mutant E83 to alanine (human, UniProt P16410 36-161)
T5 construct: extracellular domain; alanine-scan mutein, HEK293F supernatant
T5 sequence (looked up): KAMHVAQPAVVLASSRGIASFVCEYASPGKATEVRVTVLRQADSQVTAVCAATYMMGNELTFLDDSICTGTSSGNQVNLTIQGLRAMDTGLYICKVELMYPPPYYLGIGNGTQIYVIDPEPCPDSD
Description: as §1

[6] = molecular target: T6, hCTLA4_ECD.His point mutant C129 to alanine (human, UniProt P16410 36-161)
T6 construct: extracellular domain; alanine-scan mutein, HEK293F supernatant
T6 sequence (looked up): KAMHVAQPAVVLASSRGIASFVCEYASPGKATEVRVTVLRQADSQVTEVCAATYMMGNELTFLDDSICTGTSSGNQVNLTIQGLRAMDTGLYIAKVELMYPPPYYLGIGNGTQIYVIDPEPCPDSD
Description: as §1

[7] = molecular target: T7, hCTLA4_ECD.His point mutant I149 to alanine (human, UniProt P16410 36-161)
T7 construct: extracellular domain; alanine-scan mutein, HEK293F supernatant
T7 sequence (looked up): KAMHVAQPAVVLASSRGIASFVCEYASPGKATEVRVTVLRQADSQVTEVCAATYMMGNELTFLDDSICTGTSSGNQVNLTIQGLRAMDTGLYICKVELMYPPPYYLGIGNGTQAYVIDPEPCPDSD
Description: as §1

[8] = molecular target: T8, hCTLA4_ECD.His point mutant V84 to alanine (human, UniProt P16410 36-161)
T8 construct: extracellular domain; alanine-scan mutein, HEK293F supernatant
T8 sequence (looked up): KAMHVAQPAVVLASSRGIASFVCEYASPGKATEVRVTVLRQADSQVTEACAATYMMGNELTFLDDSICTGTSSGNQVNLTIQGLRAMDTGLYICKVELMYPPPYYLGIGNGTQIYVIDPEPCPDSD
Description: as §1

[9] = molecular target: T9, hCTLA4_ECD.His point mutant C85 to alanine (human, UniProt P16410 36-161)
T9 construct: extracellular domain; alanine-scan mutein, HEK293F supernatant
T9 sequence (looked up): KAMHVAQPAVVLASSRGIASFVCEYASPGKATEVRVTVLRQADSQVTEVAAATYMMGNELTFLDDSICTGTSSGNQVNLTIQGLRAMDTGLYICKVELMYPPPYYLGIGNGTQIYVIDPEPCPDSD
Description: as §1

[10] = molecular target: T10, hCTLA4_ECD.His point mutant L74 to alanine (human, UniProt P16410 36-161)
T10 construct: extracellular domain; alanine-scan mutein, HEK293F supernatant
T10 sequence (looked up): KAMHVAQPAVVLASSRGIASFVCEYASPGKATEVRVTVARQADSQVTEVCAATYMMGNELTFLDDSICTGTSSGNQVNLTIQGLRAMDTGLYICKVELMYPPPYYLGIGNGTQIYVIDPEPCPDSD
Description: as §1

[11] = molecular target: T11, hCTLA4_ECD.His point mutant G146 to alanine (human, UniProt P16410 36-161)
T11 construct: extracellular domain; alanine-scan mutein, HEK293F supernatant
T11 sequence (looked up): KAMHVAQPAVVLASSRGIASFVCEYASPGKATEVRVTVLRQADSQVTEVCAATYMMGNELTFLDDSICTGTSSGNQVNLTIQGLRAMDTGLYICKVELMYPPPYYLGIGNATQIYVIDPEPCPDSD
Description: as §1

[12] = molecular target: T12, hCTLA4_ECD.His point mutant P136 to alanine (human, UniProt P16410 36-161)
T12 construct: extracellular domain; alanine-scan mutein, HEK293F supernatant
T12 sequence (looked up): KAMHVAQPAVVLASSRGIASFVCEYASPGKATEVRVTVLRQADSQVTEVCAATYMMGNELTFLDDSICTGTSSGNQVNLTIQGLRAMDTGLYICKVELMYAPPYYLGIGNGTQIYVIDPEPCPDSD
Description: as §1

[13] = molecular target: T13, hCTLA4_ECD.His point mutant R70 to alanine (human, UniProt P16410 36-161)
T13 construct: extracellular domain; alanine-scan mutein, HEK293F supernatant
T13 sequence (looked up): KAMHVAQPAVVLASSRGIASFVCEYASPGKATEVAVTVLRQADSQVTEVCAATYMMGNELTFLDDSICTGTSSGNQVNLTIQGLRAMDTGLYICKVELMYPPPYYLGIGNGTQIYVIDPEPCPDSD
Description: as §1

B1: W3162-1.146.19-z12-uAb.IgG1K (antibody, V domains shown)
VH: QVQLQESGPGLVKPSETLSLTCSVTYHTITSGYDWTWIRKPPGKGMEWIGYISYSGNTNYNPSLKSRVTISRDTSKNQFFLKLSSVTAADTAVYYCASMMVPHYYVMDAWGQGTLVTVSS
VL: DIVMTQTPLSLSVTPGQPASISCRSSQSLLNSDGNTYLYWYLQKPGQSPQLLIYLVSKLGSGVPNRFSGSGSGTDFTLKISRVEAEDVGVYYCVQGTHDPWTFGGGTKVEIK
notes: Humanized; label says IgG1K
Fold change [1]: 0.182 fold | Fold change [2]: 0.223 fold | Fold change [3]: 0.423 fold | Fold change [4]: 0.529 fold | Fold change [5]: 0.405 fold | Fold change [6]: 0.182 fold | Fold change [7]: 0.183 fold | Fold change [8]: 0.201 fold | Fold change [9]: 0.256 fold | Fold change [10]: 0.398 fold | Fold change [11]: 0.166 fold | Fold change [12]: 0.231 fold | Fold change [13]: 0.507 fold

B2: W3162_1.154.8-z35-uAb.IgG1K (antibody, V domains shown)
VH: QVQLVQSGAEVKKPGSSVKVSCKASGYTFTNYFMNWVRQAPGQGLEWMGRVDPEQGRADYAEKFKKRVTITADKSTSTAYMELSSLRSEDTAVYYCARRAMDNYGFAYWGQGTLVTVSS
VL: EIVLTQSPDFQSVTPKEKVTITCSANSALSYMYWYQQKPDQSPKLWVHGTSNLASGVPSRFSGSGSGTDFTLTINSLEAEDAATYYCHHWSNTQWTFGGGTKVEIK
notes: Humanized; label says IgG1K
Fold change [1]: 0.238 fold | Fold change [2]: 0.24 fold | Fold change [3]: 0.433 fold | Fold change [4]: 0.549 fold | Fold change [5]: 0.479 fold | Fold change [6]: 0.211 fold | Fold change [7]: 0.319 fold | Fold change [8]: 0.232 fold | Fold change [9]: 0.218 fold | Fold change [10]: 0.52 fold | Fold change [11]: 0.201 fold | Fold change [12]: 0.155 fold | Fold change [13]: 0.515 fold
